From patent US20230374526A1, “FORSKOLIN-INDUCIBLE PROMOTERS AND HYPOXIA-INDUCIBLE PROMOTERS” (ASKLEPIOS BIOPHARMACEUTICAL, INC., priority 2020, published 2023)

Columns and labels:
CHO-GS cells = experiment: Luciferase expression from hypoxia-inducible promoter, transient transfection, normoxia vs 24 h hypoxia; type: cell-based, chinese hamster; conditions: CHO_GS suspension cell line
Description: 40 ml of cells were grown in a 250 ml vented Erlenmeyer flask (Sigma-Aldrich CLS431144) at 37° C., 20% O2, 8% CO2 with agitation at 100 rpm. Cells were seeded as at 300,000 cells/ml.
One day before transfection, the cells were counted using a haemocytometer and split to 500,000 cells/ml.
On the day of transfection, the cells are seeded to 1,000,000 cells/ml in 500 μl of appropriate medium (Thermofisher, CD-CHO 10743029) in a 24 well plate. 0.625 μg of DNA per well was then added to 10 μl of OptiMem medium (Thermofisher; 11058021) and incubated for 5 minutes at room temperature.
Concurrently, 0.625 μl of Freestyle Max reagent (Thermofisher, 16447100) was made up to 10 μl by addition of OptiMem and incubated for 5 minutes at room temperature. After this incubation, both mixes were added to the same tube and incubated at room temperature for 25-30 minutes. The DNA/Max reagent mix (20 μl/well) was then added directly to the cells and the cells incubated at 37 C, 8% CO2 with agitation at 100 rpm. […]
After transfection the cells were incubated for 24 hrs in normoxic conditions (20% oxygen). Induction of the promoters was assessed by using luciferase activity after 24 hrs in normoxia or hypoxia (5% oxygen, 10% carbon dioxide and 85% nitrogen). […] Luciferase activity was measured as described above.

HEK293-T cells = experiment: Luciferase expression from hypoxia-inducible promoter, normoxia vs 24 h hypoxia; type: cell-based, human
Description: HEK293-T are seeded at a density of 20%. Once they reached a confluence between 60 and 80%, the media is changed with DMEM (#21885-025—Thermo Scientific) supplemented with 10% FBS (Gibco, 26140). After 3 hours, the cells were transfected by a transfection mix. The transfection mix is prepared by adding DNA (2 μg per 6 well plate) and PEI 25 kDA (#23966-1—Polyscience) in a ratio of 1:3 in sterile DPBS (#14190169—ThermoFisher Scientific). After mixing, the transfection mix is incubated at room temperature for 30 minutes and then added directly to the cells. After 16 to 18 h post transfection, the media is changed to DMEM+2% FBS. […]
After transfection the cells were incubated for 24 hrs in normoxic conditions (20% oxygen). Induction of the promoters was assessed by using luciferase activity after 24 hrs in normoxia or hypoxia (5% oxygen, 10% carbon dioxide and 85% nitrogen). […]
Luciferase activity was measured using LARII (Dual Luciferase Reporter 1000 assay system, Promega, E1980).
Media was removed from the cells at the respective time point (0, 3, 5, 24 hrs after induction). […] 10 μl of supernatant was pipetted into white 96-well plate and luminescence measured by addition of 50 μl of LARII substrate.
β-galactosidase activity was measured as per manufacturer's instructions (Mammalian βGalactosidase Assay Kit, 75707/75710, Thermo Scientific) using 25 μl of lysate. […]

CHO-GSK1SV cell line = experiment: SEAP expression from hypoxia-inducible promoter in stably integrated cell line, normoxia vs 24 h hypoxia; type: cell-based, chinese hamster; conditions: normalised to cell number
Description: Cell suspensions of 6×10^5 cells per mL are incubated on an orbital shaker set at 8% CO2, 20% O2, 37° C., 85% relative humidity and 140 rpm overnight. 2.86×10^7 cells were centrifuged at 200 g for 3 minutes. Media is then aspirated and cell pellet resuspended in 2 mL fresh CD-CHO media to obtain a concentration of 1.43×10^7 cells per mL. 700 μL of cell suspension was added to each of two electroporation cuvettes each containing […] of linearised DNA in 100 μL of sterile TE buffer (Thermofisher, 12090015). Each cuvette was electroporated, delivering a single pulse of 300V, […] with resistance to infinity. Immediately after delivery of pulse electroplated cells were transferred to Erlenmeyer 125 mL flask containing 20 mL of CD-CHO media pre-warmed to 37° C. […] Cells are transferred to fresh CD-CHO media 24 hours after transfection and cell cultures monitored and given fresh CD-CHO media every 2-4 days. […]
Stably transfected CHO-GS cells were seeded at 500,000 cells/ml and allowed to grow for 24 hrs, at this point the cells were counted and placed under hypoxic conditions as previously described. After 24 hrs, the cell numbers and the expression of SEAP was measured.
SEAP Reporter Gene Assay, chemiluminescent (Roche, CAT #11 779 842 001) was used to measured SEAP activity as per manufacturers protocol. […] The signal is then read at 477 nm and compared to a calibration curve. […]

B1: RTV-015: hypoxia-inducible promoter, SEQ ID NO: 129; 5 HRE1 elements spaced by 40 bp spacers, synthetic minimal promoter MP1 (nucleic acid)
DNA: ACGTGCGATGATGCGTAGCTAGTAGTGATGATGCGTAGCTAGTAGTACGTGCGATGATGCGTAGCTAGTAGTGATGATGCGTAGCTAGTAGTACGTGCGATGATGCGTAGCTAGTAGTGATGATGCGTAGCTAGTAGTACGTGCGATGATGCGTAGCTAGTAGTGATGATGCGTAGCTAGTAGTACGTGCTTGGTACCATCCGGGCCGGCCGCTTAAGCGACGCCTATAAAAAATAGGTTGCATGCTAGGCCTAGCGCTGCCAGTCCATCTTCGCTAGCCTGTGCTGCGTCAGTCCAGCGCTGCGCTGCGTAACGGCCGCC
modifications: Synp-RTV-015
notes: 5 HRE1 elements spaced by 40 bp spacers, synthetic minimal promoter MP1
- Luciferase expression after 24 hours in hypoxia (vs normoxia) (CHO-GS cells; 5% oxygen): induced
- Luciferase activity in normoxia (CHO-GS cells; 20% oxygen): almost no luciferase activity
- Luciferase expression after 24 hours in hypoxia (vs normoxia) (HEK293-T cells; 5% oxygen): induced
- Luciferase activity in normoxia (HEK293-T cells; 20% oxygen): almost no luciferase activity
- SEAP activity in normoxia (CHO-GSK1SV cell line): almost no SEAP activity
- SEAP expression after 24 hours in hypoxia (vs normoxia) (CHO-GSK1SV cell line): induced
